Results from patent publication US20040204561A1 (published 2004).
Ends that are not written are not given here. bbDTPA = DTPA chelating ligand bonded through a carbon of its ethylene backbone

Tests used:
[1] = target: T1, streptavidin (on magnetic beads) (UniProt P22629 37-163, limits assumed); test: capture on streptavidin magnetic beads, gadolinium ICP
T1 construct: also called streptavidin beads; streptavidin-coated beads
Description: The three EP1595/EP1272 formulations, one EP1596/EP1272 formulation, and an EP1272 formulation were assayed for affinity to streptavidin magnetic beads. Each sample was diluted so as to maintain a constant ratio of biotinylated peptide and streptavidin binding sites in the assay. Solutions without biotin were treated as though they contained 0.5% EP1595. After several rinses the magnetic beads were digested in acid. The extent of capture was quantified by gadolinium ICP.

[2] = target: the molecule itself; test: self-association, observation of solutions
Excerpt: First, solutions of EP 1272L (FW=2,243 Da) were concentrated and purified by centrifugation in a filter device with a nominal molecular weight limit of 300,000 Da. The formation of high molecular weight aggregates allowed EP1272L to be retained by the filter device. […] Third, SEC-LS column retention and light scattering measurements of EP1272L were consistent with a large species having a mass distribution of 4×10⁶ to 13×10⁶ Da, and a hydrodynamic radius in the range of 155 nm to 210 nm.

T1 sequence (P22629 37-163 limits assumed): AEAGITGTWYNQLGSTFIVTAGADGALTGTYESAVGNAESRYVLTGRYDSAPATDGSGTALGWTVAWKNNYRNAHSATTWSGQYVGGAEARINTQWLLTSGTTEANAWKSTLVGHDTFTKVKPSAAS

B1: EP1272L (peptide)
peptide: bbDTPA-GAEAEAKAKAEAEAKAK
modifications: also: bbDTPA complexed to Gd(III)
notes: also called EP1272L aggregates alone; EP1272 formulation
Question: Does B1 bind [1]?
Answer: binds

Question: Does B1 bind [2]?
Answer: binds
